PMC8487046, “Insights into the ligand binding specificity of SREC‐II (scavenger receptor expressed by endothelial cells)” (FEBS Open Bio, 2021)

B1: recombinant human calreticulin (CRT) (natural protein, UniProt P27797 18-417, looked up)
chain: EPAVYFKEQFLDGDGWTSRWIESKHKSDFGKFVLSSGKFYGDEEKDKGLQTSQDARFYALSASFEPFSNKGQTLVVQFTVKHEQNIDCGGGYVKLFPNSLDQTDMHGDSEYNIMFGPDICGPGTKKVHVIFNYKGKNVLINKDIRCKDDEFTHLYTLIVRPDNTYEVKIDNSQVESGSLEDDWDFLPPKKIKDPDASKPEDWDERAKIDDPTDSKPEDWDKPEHIPDPDAKKPEDWDEEMDGEWEPPVIQNPEYKGEWKPRQIDNPDYKGTWIHPEIDNPEYSPDPSIYAYDNFGVLGLDLWQVKSGTIFDNFLITNDEAYAEEFGNETWGVTKAAEKQMKDKQDEEQRLKEEEEDKKRKEEEEAEDKEDDEDKDEDEEDEEDKEEDEEEDVPGQAKDEL
notes: calreticulin, human; source: recombinant, produced according to published procedures [6, 9]
B2: SREC‐II(44‐442), extracellular domain of scavenger receptor expressed by endothelial cells II (domain or fragment)
chain: QELNPRGRNVCRAPGSQVPTCCAGWRQQGDECGIAVCEGNSTCSENEVCVRPGECRCRHGYFGANCDTKCPRQFWGPDCKELCSCHPHGQCEDVTGQCTCHARRWGARCEHACQCQHGTCHPRSGACRCEPGWWGAQCASACYCSATSRCDPQTGACLCHAGWWGRSCNNQCACNSSPCEQQSGRCQCRERTFGARCDRYCQCFRGRCHPVDGTCACEPGYRGKYCREPCPAGFYGLGCRRRCGQCKGQQPCTVAEGRCLTCEPGWNGTKCDQPCATGFYGEGCSHRCPPCRDGHACNHVTGKCTRCNAGWIGDRCETKCSNGTYGEDCAFVCADCGSGHCDFQSGRCLCSPGVHGPHCNVTCPPGLHGADCAQACSCHEDTCDPVTGACHLETNQRKGLIK
modifications: N‐terminal glutamine 44 converted to pyroglutamate; N‐glycosylated (extra mass of 11.3 kDa)
notes: SREC-II (encoded by SCARF2), extracellular moiety; 3 amino acids (Leu-Ile-Lys) between Gly442 and the 8 His residues; also called SREC‐II ectodomain; soluble SREC‐II; not shown: His8, C-terminal, kept

Legend:
[1] = molecular target: B2; assay: SPR; SREC-II(44-442) immobilized (1973 RU, CM5, amine coupling), CRT injected at five increasing concentrations in single cycle kinetics mode; TBS-Ca-P; 30 µL/min; 25 °C; global fit, two-state reaction model; apparent KD; details: both partners purified
[2] = molecular target: T1, complement C1q, purified human (human, UniProt P02745 23-245; P02746 28-253; P02747 29-245); assay: SPR; C1q immobilized (18 700 RU, CM5, amine coupling; BSA as reference surface), serially diluted SREC-II(44-442) injected; TBS-Ca-P; 20 µL/min; 25 °C; global fit, 1:1 Langmuir model; apparent KD; details: both partners purified
T1 construct: MW used: 459 300 g/mol; source: purified human C1q, prepared as described previously [8]; copies: + +
T1 sequence (P02745 23-245, chain 1 of 3): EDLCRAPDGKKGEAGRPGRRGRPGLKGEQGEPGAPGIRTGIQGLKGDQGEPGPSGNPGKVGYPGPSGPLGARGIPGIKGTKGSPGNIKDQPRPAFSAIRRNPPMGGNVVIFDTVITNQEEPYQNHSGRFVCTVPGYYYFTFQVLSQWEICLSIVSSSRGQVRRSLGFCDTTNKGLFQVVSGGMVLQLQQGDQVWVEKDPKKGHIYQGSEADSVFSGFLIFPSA
T1 sequence (P02746 28-253, chain 2 of 3): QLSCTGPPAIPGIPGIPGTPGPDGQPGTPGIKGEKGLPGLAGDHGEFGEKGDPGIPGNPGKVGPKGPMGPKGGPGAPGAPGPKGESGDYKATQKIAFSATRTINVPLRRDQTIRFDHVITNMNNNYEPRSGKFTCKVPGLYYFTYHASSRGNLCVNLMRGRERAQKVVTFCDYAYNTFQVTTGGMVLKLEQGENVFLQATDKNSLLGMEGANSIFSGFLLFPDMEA
T1 sequence (P02747 29-245, chain 3 of 3): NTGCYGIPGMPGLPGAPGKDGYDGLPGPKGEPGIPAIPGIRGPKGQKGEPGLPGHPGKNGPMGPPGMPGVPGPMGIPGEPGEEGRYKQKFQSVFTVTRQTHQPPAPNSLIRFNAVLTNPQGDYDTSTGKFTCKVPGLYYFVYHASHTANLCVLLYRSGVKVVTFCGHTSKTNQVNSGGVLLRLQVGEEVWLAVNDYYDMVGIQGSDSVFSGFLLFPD

For B1, the Kd [1] was 290 nM.

With B2 the Kd [2] was 45 nM, the koff [2] was 0.001 s⁻¹ and the kon [2] was 20000 M⁻¹ s⁻¹.
